Test results published in the supplement of paper PMC11136658.

Test system: peptide library, one residue held at a place counted from the Y acceptor
Test: relative phosphorylation of the sub-library (ratio to the mean residue at this position); higher = residue favoured
Method in brief: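 Purified recombinant kinases were incubated for 90 min in 384-well plates with biotinylated Tyr-centred peptide library mixtures, each fixing one residue at one position from −5 to +5, plus 50 μM ATP with γ-32P-ATP. Peptides were captured on streptavidin membranes, rinsed and quantified by phosphorimaging and ImageQuant. Intensities were normalized per position by the sum of the 18 (or 16, Ser/Thr-free library) randomized residues and multiplied by that number. Values give phosphorylation relative to the mean randomized residue.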

Chain of BMX, construct: Full length, human (P51813 whole entry, looked up): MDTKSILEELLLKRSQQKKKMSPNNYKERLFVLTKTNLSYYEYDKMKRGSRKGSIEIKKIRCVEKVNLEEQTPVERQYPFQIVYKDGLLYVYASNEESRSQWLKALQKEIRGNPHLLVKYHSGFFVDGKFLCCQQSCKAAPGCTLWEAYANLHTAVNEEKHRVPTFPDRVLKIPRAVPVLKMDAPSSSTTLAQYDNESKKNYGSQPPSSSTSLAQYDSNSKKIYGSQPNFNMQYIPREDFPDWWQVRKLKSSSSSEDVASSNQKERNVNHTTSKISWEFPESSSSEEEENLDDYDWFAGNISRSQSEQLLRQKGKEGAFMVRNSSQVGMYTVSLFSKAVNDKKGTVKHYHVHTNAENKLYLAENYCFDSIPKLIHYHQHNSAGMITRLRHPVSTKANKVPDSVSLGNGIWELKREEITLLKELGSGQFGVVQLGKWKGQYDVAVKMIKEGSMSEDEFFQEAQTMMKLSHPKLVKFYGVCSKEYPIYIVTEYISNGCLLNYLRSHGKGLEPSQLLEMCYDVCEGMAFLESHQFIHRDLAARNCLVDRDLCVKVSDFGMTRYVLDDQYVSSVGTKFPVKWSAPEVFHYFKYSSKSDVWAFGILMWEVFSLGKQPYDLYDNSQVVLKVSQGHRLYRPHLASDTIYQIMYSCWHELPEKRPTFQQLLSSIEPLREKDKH
Chain of EPHA8, construct: aa571-924, human (P29322 571-924, looked up): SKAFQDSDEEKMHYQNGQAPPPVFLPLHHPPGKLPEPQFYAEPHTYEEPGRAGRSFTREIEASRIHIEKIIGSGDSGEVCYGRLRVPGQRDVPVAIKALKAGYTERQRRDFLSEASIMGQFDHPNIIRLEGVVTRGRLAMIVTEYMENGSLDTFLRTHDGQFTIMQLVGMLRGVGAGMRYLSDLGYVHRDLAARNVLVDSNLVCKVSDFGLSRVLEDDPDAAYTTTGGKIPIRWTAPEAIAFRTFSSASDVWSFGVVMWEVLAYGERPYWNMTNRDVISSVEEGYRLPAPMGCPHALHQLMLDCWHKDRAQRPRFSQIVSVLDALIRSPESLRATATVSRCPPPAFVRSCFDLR

EPHA8, construct: aa571-924, human (from UniProt P29322)
relative phosphorylation
Settings | at +1 | at +2 | at +3 | at +4 | at +5 | at -1 | at -2 | at -3 | at -4 | at -5
A fixed | 1.46 | 0.773 | 0.757 | 0.81 | 1.11 | 0.454 | 1.15 | 0.671 | 1.11 | 0.971
D fixed | 0.978 | 1.49 | 0.359 | 0.911 | 1.19 | 1.98 | 1.35 | 1.49 | 1.48 | 1.17
E fixed | 2.64 | 1.84 | 0.346 | 1.02 | 1.34 | 2.03 | 1.77 | 2.17 | 1.74 | 1.13
F fixed | 0.777 | 1.38 | 1.62 | 1.22 | 0.934 | 0.855 | 0.708 | 1.42 | 1.07 | 1.02
G fixed | 0.716 | 0.419 | 0.572 | 1.28 | 1.08 | 0.242 | 1.15 | 0.899 | 1.18 | 1.21
H fixed | 0.624 | 0.838 | 0.819 | 1.11 | 1.1 | 0.672 | 0.853 | 1.03 | 0.87 | 1.06
I fixed | 1.68 | 0.884 | 2.9 | 0.857 | 0.617 | 2.9 | 0.735 | 0.849 | 0.845 | 0.956
K fixed | 0.266 | 0.506 | 0.32 | 0.772 | 0.957 | 0.249 | 0.685 | 0.528 | 0.715 | 0.87
L fixed | 0.814 | 0.891 | 1.71 | 0.778 | 0.721 | 1.54 | 0.792 | 0.651 | 0.901 | 0.949
M fixed | 1.37 | 0.786 | 1.23 | 0.944 | 0.855 | 0.698 | 0.559 | 0.833 | 0.843 | 1.02
N fixed | 0.384 | 1.1 | 0.453 | 0.838 | 0.869 | 1.92 | 1.22 | 1.07 | 0.96 | 1.05
P fixed | 0.293 | 0.783 | 1.11 | 1.39 | 1.72 | 0.391 | 1.4 | 0.927 | 0.974 | 1.08
Q fixed | 1.07 | 0.823 | 0.559 | 0.932 | 0.897 | 0.402 | 1.11 | 0.813 | 1.12 | 0.977
R fixed | 0.318 | 0.723 | 0.453 | 1.05 | 1.14 | 0.288 | 0.778 | 0.688 | 0.818 | 0.884
S fixed | 0.849 | 0.886 | 0.485 | 0.822 | 0.943 | 0.422 | 1.14 | 0.958 | 0.838 | 0.834
T fixed | 0.745 | 0.855 | 0.607 | 0.795 | 0.96 | 1.15 | 0.865 | 0.837 | 0.67 | 0.782
V fixed | 1.7 | 0.914 | 2.1 | 0.81 | 0.644 | 1.11 | 0.947 | 0.728 | 0.779 | 0.849
W fixed | 1.32 | 2.12 | 1.59 | 1.65 | 0.932 | 0.693 | 0.778 | 1.44 | 1.1 | 1.19
pThr fixed | 1.94 | 2.25 | 0.437 | 1.02 | 1.1 | 3.17 | 1.26 | 1.04 | 0.986 | 0.968
pTyr fixed | 4.68 | 7.04 | 1.16 | 1.22 | 1.39 | 2.63 | 1.63 | 1.34 | 1.37 | 1.27

BMX, construct: Full length, human (from UniProt P51813)
relative phosphorylation
Settings | at +1 | at +2 | at +3 | at +4 | at +5 | at -1 | at -2 | at -3 | at -4 | at -5
A fixed | 1.73 | 1.01 | 0.847 | 0.846 | 0.939 | 0.521 | 1.05 | 0.992 | 1.04 | 1.05
D fixed | 0.82 | 0.761 | 0.324 | 0.746 | 0.903 | 0.726 | 1.43 | 1.48 | 1.31 | 1.11
E fixed | 1.85 | 1.27 | 0.292 | 0.959 | 0.958 | 0.812 | 1.5 | 1.56 | 1.43 | 1.03
F fixed | 0.504 | 1.02 | 1.53 | 0.876 | 1.11 | 1.13 | 0.558 | 1.12 | 0.855 | 0.993
G fixed | 0.807 | 0.605 | 0.799 | 1.11 | 1.08 | 0.293 | 1.18 | 0.958 | 1.33 | 1.13
H fixed | 0.451 | 0.611 | 2.04 | 1.1 | 1.01 | 0.643 | 0.912 | 0.864 | 0.866 | 0.921
I fixed | 1.61 | 1.08 | 1.25 | 0.722 | 0.764 | 3.28 | 0.744 | 0.636 | 0.845 | 0.855
K fixed | 0.251 | 0.768 | 0.639 | 0.881 | 0.914 | 0.281 | 0.792 | 0.672 | 0.898 | 1.03
L fixed | 0.714 | 1 | 1.1 | 0.849 | 0.762 | 3.33 | 0.799 | 0.704 | 0.884 | 1.02
M fixed | 1.28 | 0.979 | 1.15 | 1.06 | 1.04 | 1.24 | 0.71 | 0.805 | 0.958 | 0.938
N fixed | 0.44 | 0.919 | 0.558 | 0.784 | 0.99 | 0.567 | 1.27 | 1.39 | 1.03 | 1.15
P fixed | 0.166 | 0.873 | 0.569 | 1.12 | 1.3 | 0.5 | 1.38 | 1.13 | 1.27 | 1.19
Q fixed | 1.26 | 1.02 | 1.09 | 1.19 | 0.953 | 0.652 | 1.3 | 1.08 | 1.26 | 1.1
R fixed | 0.332 | 0.919 | 1.47 | 1.27 | 1.2 | 0.298 | 0.81 | 0.823 | 0.987 | 1.06
S fixed | 1.38 | 1.27 | 0.866 | 0.935 | 1.1 | 0.475 | 1.18 | 1.08 | 0.797 | 0.923
T fixed | 1.39 | 1.35 | 0.704 | 0.936 | 1.02 | 1.1 | 1.03 | 0.909 | 0.724 | 0.787
V fixed | 1.74 | 1.42 | 1.24 | 0.898 | 0.788 | 1.64 | 0.866 | 0.792 | 0.738 | 0.867
W fixed | 1.28 | 1.11 | 1.53 | 1.73 | 1.16 | 0.501 | 0.493 | 0.987 | 0.777 | 0.868
pThr fixed | 2.3 | 2.57 | 0.296 | 0.734 | 0.603 | 2.21 | 1.19 | 1.25 | 1.09 | 0.986
pTyr fixed | 1.29 | 2.49 | 0.504 | 0.852 | 0.858 | 9.03 | 1.27 | 1.46 | 1.22 | 1.05
